Data as given in patent US20230192815A1.

B1: CPV nanobody CPV-VHH-H1 (VHH)
VHH: QVQLVESGGGLAQPGGSLRLSCAASGAIDSISAMRWFRQPPGKQRAVVASITSDGVTTYADSVKGRFTISRDNAENTLYLQMNSLKTEDTGVYYCYAALKGYSSGVVAASWGQGTQVTVSG

Experiments:
[1] = target: Canine parvovirus CPV-2c (TS02 strain), purified virus (canine parvovirus CPV-2c, TS02 strain); test: indirect ELISA, purified CPV coated, serum dilution printed 1:1250000 (text: 125,000 times); control of the third immunization serum
[2] = target: Canine parvovirus CPV-2c (TS02 strain), purified virus (canine parvovirus CPV-2c, TS02 strain); test: indirect ELISA, purified CPV coated, serum dilution printed 1:1250000 (text: 125,000 times); control of the fourth immunization serum
[3] = target: Canine parvovirus CPV-2c (TS02 strain), purified virus (canine parvovirus CPV-2c, TS02 strain); test: indirect ELISA, purified CPV coated, serum dilution 1:1000; control of the fourth immunization serum
[4] = target: Canine parvovirus CPV-2c (TS02 strain), purified virus (canine parvovirus CPV-2c, TS02 strain); test: indirect ELISA, purified CPV coated, serum dilution 1:25000; control of the fourth immunization serum
[5] = target: Canine parvovirus CPV-2c (TS02 strain), purified virus (canine parvovirus CPV-2c, TS02 strain); test: indirect ELISA, purified CPV coated, serum dilution 1:25000; control of the third immunization serum
[6] = target: Canine parvovirus CPV-2c (TS02 strain), purified virus (canine parvovirus CPV-2c, TS02 strain); test: indirect ELISA, purified CPV coated, serum dilution 1:1000; control of the third immunization serum
[7] = target: Canine parvovirus CPV-2c (TS02 strain), purified virus (canine parvovirus CPV-2c, TS02 strain); test: indirect ELISA, purified CPV coated, serum dilution 1:5000; control of the third immunization serum
[8] = target: Canine parvovirus CPV-2c (TS02 strain), purified virus (canine parvovirus CPV-2c, TS02 strain); test: indirect ELISA, purified CPV coated, serum dilution 1:5000; control of the fourth immunization serum
[9] = target: Canine parvovirus CPV-2c (TS02 strain), purified virus (canine parvovirus CPV-2c, TS02 strain); test: indirect ELISA, purified CPV coated, nanobody dilution 1:100, anti-His-HRP
[10] = target: Canine parvovirus CPV-2c (TS02 strain), purified virus (canine parvovirus CPV-2c, TS02 strain); test: indirect ELISA, purified CPV coated, nanobody dilution 1:10, anti-His-HRP
[11] = target: Canine parvovirus CPV-2c (TS02 strain), purified virus (canine parvovirus CPV-2c, TS02 strain); test: indirect ELISA, purified CPV coated, nanobody dilution 1:1000, anti-His-HRP
[12] = target: Canine parvovirus CPV-2c (TS02 strain), purified virus (canine parvovirus CPV-2c, TS02 strain); test: indirect ELISA, purified CPV coated, nanobody dilution 1:10000, anti-His-HRP
[13] = target: Canine parvovirus CPV-2c (TS02 strain), purified virus (canine parvovirus CPV-2c, TS02 strain); test: cell-based or functional assay

Molecule | mean OD450 nm [1] | mean OD450 nm [2] | mean OD450 nm [3] | mean OD450 nm [4] | mean OD450 nm [5] | mean OD450 nm [6] | mean OD450 nm [7] | mean OD450 nm [8] | mean OD450 nm [9] | mean OD450 nm [10] | mean OD450 nm [11] | mean OD450 nm [12] | neutralization titer (CPV neutralization assay, CPE on CRFK cells) (titer (1:x dilution)) [13]
Negative serum of non-immunized alpaca | 0.044 OD450 nm | 0.067 OD450 nm | 0.371 OD450 nm | 0.083 OD450 nm | 0.048 OD450 nm | 0.158 OD450 nm | 0.071 OD450 nm | 0.16 OD450 nm | – | – | – | – | –
B1 | – | – | – | – | – | – | – | – | 2.46 OD450 nm | 2.56 OD450 nm | 0.28 OD450 nm | 0.1 OD450 nm | < 10
